Measured values published in article PMC7137328.

Substrate: O=P(O)(O)O[C@H]1[C@H](OP(=O)(O)O)[C@@H](OP(=O)(O)O)[C@H](OP(=O)(O)O)[C@@H](OP(=O)(O)O)[C@H]1OP(=O)(O)O
Experiment: purified protein
Details: 100 mM Tris-HCl pH 7.5, 50 °C, 10 min, 0.125-4.0 mM sodium phytate, printed kcat does not agree with printed Vmax and Mw

B1: r-Aophytase (recombinant Aophytase; G1XN29 protein) (Orbilia oligospora ATCC 24927) (protein)
chain: ADKFSITLPITARTSSVESDSAAVYYPSKSKYSPIFIGNDGSAETGGFHVYELYGKRSDALVKELGAYKTGRSKLVEVVYGEDRDFVVTLSMSDGMFRVFEVDGKNGVRGLKAEKLVRGDFSAMCTWKSKVGEYVYVLGKRWGYRFLVREKKGGRGVEVVQTQEFGIPIEPNSCTVSPEGKVFLAGDSGKVFSFLAVDETAAPKIVEVGELGGGDEVKGLKIYHGKKDTYLLVGLEDGIEVFDIKKLGSSLGKIQFDDEELEVGDFAVHQTSAKGYEDGSIVFAGEDGEGKFFGVSSLTPLFKALGKGKLNTKYDPRDCTDNHARPKKCANLSDCNGYGYCPKDSRDKKATCDCFPGLTGKTCNKITCPSNCTSPSHGTCTGPNICTCIPPFTGENCATLAVPARYETEESGGADGDDPAIWIHPTDKTKSRIITTVKSEVGSGLGVYDLKGKRTGGVSGGEPNNVDVLYGVEFAGRKVDLAVAACRADDTICIYEITPTGDLVTIPGGVQPLPPAVKELEKKFKVYGSCVYHSPKTGAYHIFVNSKSSLYLQFQLSATTDGKLNTTLVRHFYAGNRGQVEGCVVDDENSSLFLGEEPYGIWSYDAEPDQPAVGTLVDNTVVDGGKLHADVEGVTLVYGKTKKEGYIIVSCQGYSEYNIYQRYPPHEFVMSFSIPDNKEKGVDRVTNTDGITAVGANLGKEWPYGMVVVHDDVNEAAGGGVRADATFKIVGLGDILGNKAVKELGLLKGVDENWDPRK
- Km: 1015 µM
- kcat: 13.57 s⁻¹
